Three molecules from patent US6812337 (GOVERNING COUNCIL OF THE UNIVERSITY OF TORONTO, dated 2004) can be followed below.

Assay [1] concerns the target wild type human presenilin-1 (PS1) (human, UniProt P49768 1-467). Briefly: cell-based or functional assay.
Assay [2] concerns the target T1, V5-tagged human Presenilin Associated Membrane Protein (PAMP) (human, UniProt Q92542 34-709).
T1 construct: Expressed by transfection in HEK293 cells or murine embryonic fibroblasts and tested by co-immunoprecipitation from detergent lysates; Glycosylated (~110 kDa, ~80 kDa after Endo H); also called V5-PAMP; V5-tagged-PAMP
Briefly: immunoprecipitation from cell lysates, Western blot. (In general: A western blot detects proteins with antibodies after separation by electrophoresis.)

B1: PAMPΔ312-340 (other, not shown: small tags and cut ends)
chain: NSVERKIYIPLNKTAPCVRLLNATHQIGCQSSISGDTGVIHVVEKEEDLQWVLTDGPNPPYMVLLESKHFTRDLMEKLKGRTSRIAGLAVSLTKPSPASGFSPSVQCPNDGFGVYSNSYGPEFAHCREIQWNSLGNGLAYEDFSFPIFLLEDENETKVIKQCYQDHNLSQNGSAPTFPLCAMQLFSHMHAVISTATCMRRSSIQSTFSINPEIVCDPLSDYNVWSMLKPINTTGTLKPDDRVVVAATRLDSRSFFWNVAPGAESAVASFVTQLAAAEASRMVYDMEKGKFPVQLENVDSFVELGQVALRTSLELWMHTDPVSQKNESVRNQVEDLLATLEKSGAGVPAVILRRPNQSQPLPPSSLQRFLRARNISGVVLADHSGAFHNKYYQSIYDTAENINVSYPEWLSPEEDLNFVTDTAKALADVATVLGRALYELAGGTNFSDTVQADPQTVTRLLYGFLIKANNSWFQSILRQDLRSYLGDGPLQHYIAVSSPTNTTYVVQYALANLTGTVVNLTREQCQDPSKVPSENKDLYEYSWVQGPLHSNETDRLPRCVRSTARLARALSPAFELSQWSSTEYSTWTESRWKDIRARIFLIASKELELITLTVGFGILIFSLIVTYCINAKADVLFIAPREPGAVSY
In the case of B1, in assay [1], the “Aβ42/Aβ40 Ratio” value was 0.59 normalized to mock transfection.

B2: calnexin (other, UniProt P27824 21-592, looked up)
chain: HDGHDDDVIDIEDDLDDVIEEVEDSKPDTTAPPSSPKVTYKAPVPTGEVYFADSFDRGTLSGWILSKAKKDDTDDEIAKYDGKWEVEEMKESKLPGDKGLVLMSRAKHHAISAKLNKPFLFDTKPLIVQYEVNFQNGIECGGAYVKLLSKTPELNLDQFHDKTPYTIMFGPDKCGEDYKLHFIFRHKNPKTGIYEEKHAKRPDADLKTYFTDKKTHLYTLILNPDNSFEILVDQSVVNSGNLLNDMTPPVNPSREIEDPEDRKPEDWDERPKIPDPEAVKPDDWDEDAPAKIPDEEATKPEGWLDDEPEYVPDPDAEKPEDWDEDMDGEWEAPQIANPRCESAPGCGVWQRPVIDNPNYKGKWKPPMIDNPSYQGIWKPRKIPNPDFFEDLEPFRMTPFSAIGLELWSMTSDIFFDNFIICADRRIVDDWANDGWGLKKAADGAAEPGVVGQMIEAAEERPWLWVVYILTVALPVFLVILFCCSGKKQTSGMEYKKTDAPQPDVKEEEEEKEEEKDKGDEEEEGEEKLEEKQKSDAEEDGGTVSQEEEDRKPKAEEDEILNRSPRNRKPRRE
notes: whole, on cells; The only named member of 'other ER-resident proteins'; also called other ER-resident proteins (e.g., calnexin)
As to B2, in assay [2], the binding result was “no binding”.

B3: PAMPΔ312-369 (other, not shown: small tags and cut ends)
chain: NSVERKIYIPLNKTAPCVRLLNATHQIGCQSSISGDTGVIHVVEKEEDLQWVLTDGPNPPYMVLLESKHFTRDLMEKLKGRTSRIAGLAVSLTKPSPASGFSPSVQCPNDGFGVYSNSYGPEFAHCREIQWNSLGNGLAYEDFSFPIFLLEDENETKVIKQCYQDHNLSQNGSAPTFPLCAMQLFSHMHAVISTATCMRRSSIQSTFSINPEIVCDPLSDYNVWSMLKPINTTGTLKPDDRVVVAATRLDSRSFFWNVAPGAESAVASFVTQLAAAEALRTSLELWMHTDPVSQKNESVRNQVEDLLATLEKSGAGVPAVILRRPNQSQPLPPSSLQRFLRARNISGVVLADHSGAFHNKYYQSIYDTAENINVSYPEWLSPEEDLNFVTDTAKALADVATVLGRALYELAGGTNFSDTVQADPQTVTRLLYGFLIKANNSWFQSILRQDLRSYLGDGPLQHYIAVSSPTNTTYVVQYALANLTGTVVNLTREQCQDPSKVPSENKDLYEYSWVQGPLHSNETDRLPRCVRSTARLARALSPAFELSQWSSTEYSTWTESRWKDIRARIFLIASKELELITLTVGFGILIFSLIVTYCINAKADVLFIAPREPGAVSY
Regarding B3, the “Aβ42/Aβ40 Ratio” value in assay [1] was 0.09 normalized to mock transfection.
